According to publication PMC7949044, “The cytoplasmic domain of the AAA+ protease FtsH is tilted with respect to the membrane to facilitate substrate entry” (The Journal of Biological Chemistry, 2020):

B1: AaFtsH hexamer (Aquifex aeolicus VF5) (protein)
chain: MNALKNFFIWAIIIGAAIVAFNLFEGKREFTTKVSLNEVVKLVEEGKVSYAEVRGNTAIIQTKDGQKLEVTLPPNTNLVDKMVEKGVRVEVANPEPPGGWLVNVFLSWLPILFFIGIWIFLLRQMSGGGNVNRAFNFGKSRAKVYIEEKPKVTFKDVAGIEEVKEEVKEIIEYLKDPVKFQKLGGRPPKGVLLYGEPGVGKTLLAKAIAGEAHVPFISVSGSDFVEMFVGVGAARVRDLFETAKKHAPCIIFIDEIDAVGRARGAIPVGGGHDEREQTLNQLLVEMDGFDTSDGIIVIAATNRPDILDPALLRPGRFDRQIFIPKPDVRGRYEILKVHARNKKLAKDVDLEFVARATPGFTGADLENLLNEAALLAARKGKEEITMEEIEEALDRITMGLERKGMTISPKEKEKIAIHEAGHALMGLVSDDDDKVHKISIIPRGMALGVTQQLPIEDKHIYDKKDLYNKILVLLGGRAAEEVFFGKDGITTGAENDLQRATDLAYRMVSMWGMSDKVGPIAIRRVANPFLGGMTTAVDTSPDLLREIDEEVKRIITEQYEKAKAIVEEYKEPLKAVVKKLLEKETITCEEFVEVFKLYGIELKDKCKKEELFDKDRKSEENKELKSEEVKEEVV
B2: full-length Aquifex aeolicus FtsH (enzyme, UniProt O67077 1-634, looked up)
chain: B1 chain
notes: the cited crystal structure PDB 4WW0 holds only the cytosolic domain, residues 141-608; The molecule is the protomer; In LMNG it is found as a hexamer (second SEC peak) and as a dodecamer of two hexamers in one LMNG micelle (first SEC peak); Before SEC it was incubated overnight at 60 °C with 20 mM ATP, 10 mM MgCl2 and 25 uM ZnCl2; also called AaFtsH; AaFtsH wildtype; source: E. coli, …
B3: AaFtsH dodecamer (Aquifex aeolicus VF5) (protein)
chain: B1 chain

Tests used:
[1] = target: AaFtsH-Δ20 mutant (Aquifex aeolicus) (UniProt O67077); experiment: SEC-MALS; Superose 6 Increase 10/300 GL, 20 mM Tris-HCl pH 8.0, 150 mM NaCl, 0.01% LMNG, room temperature; protein conjugate analysis; step: subunits to hexamer (second peak)
[2] = substrate: Nc1ncnc2c1ncn2[C@@H]1O[C@H](COP(=O)(O)OP(=O)(O)OP(=O)(O)O)[C@@H](O)[C@H]1O; experiment: purified protein; settings: 50 mM Tris-HCl pH 8.0, 150 mM NaCl, 10 mM MgCl2, 60 °C, 0.25 μM AaFtsH (monomer concentration)
[3] = target: the molecule itself; experiment: SEC-MALS; Superose 6 Increase 10/300 GL, 20 mM Tris-HCl pH 8.0, 150 mM NaCl, 0.01% LMNG, room temperature; protein conjugate analysis; step: two hexamers to a dodecamer in one LMNG micelle (first peak)
[4] = target: the molecule itself; experiment: SEC-MALS; Superose 6 Increase 10/300 GL, 20 mM Tris-HCl pH 8.0, 150 mM NaCl, 0.01% LMNG, room temperature; protein conjugate analysis; step: subunits to hexamer (second peak)

| Molecule | stoichiometry N [1] | Km [2] | kcat [2] | stoichiometry N [3] | stoichiometry N [4] |
| --- | --- | --- | --- | --- | --- |
| AaFtsH-Δ20 mutant (from UniProt O67077 1-634) (enzyme) | 6 |  |  |  |  |
| B1 |  | 600 (95% CI: 480–754) μM | 1.05 s⁻¹ |  |  |
| B2 |  |  |  | ~12 | 6 |
| B3 |  | 518 (95% CI: 432–625) μM | 1.02 s⁻¹ |  |  |
